From paper PMC1890003

Target: Δgpαf-BOF (recombinant nonglycosylated pro-α factor derivative labeled with BODIPY FL) (yeast)
Test: fluorescence polarisation; BOF anisotropy; Δgpαf-BOF (0.2 μM in buffer A: 50 mM HEPES pH 7.5, 40 mM KOAc, 5 mM MgCl2) titrated at 4°C with PDI or BiP; a separate sample for each concentration

Row | Kd | Substance
1 | 900 nM | oxidized protein disulfide isomerase (from UniProt P07237 18-508) (enzyme)
2 | 30 nM | reduced protein disulfide isomerase (from UniProt P07237 18-508) (enzyme)
